Source: patent publication US20020137684A1, “Ligand for enhancing oral and CNS delivery of biological agents” (priority 2000, published 2002)
Where no end group is shown, it is not given here. [ ]: non-standard residue; d: D form. TAMRA = carboxytetramethylrodamine

Assays:
Caco-2 monolayers [1] = assay: Transport of peptides across Caco-2 monolayers (Transwell, fluorescence); assay type: in vitro ADME, human; details: 50 micromol/L apical
Experimental: The desired numbers of Transwell (6.5mm diameter, 0.4 μm pore size) were placed in the wells of the tissue culture plates. The filters were wetted with medium (0.1 ml to the apical and 0.6 ml to the basolateral sides of Transwell) for 30 min in the CO2 incubator before the harvest of the cells from the flasks. The cells were re-suspended in the medium 5×10^5 cells/ml and 0.2 ml of cell suspension medium was added to the apical side of the Transwell and cultured in the CO2 incubator. The medium was changed every second day for 8-12 days to obtain well-differentiated monolayers suitable for transport experiences.
The medium in apical chamber was gently removed. […] The inserts were transferred to the new chamber. […] Peptide SEQ. ID. NO.: 2, or SEQ. ID.
The concentration of peptide in sample was determined by the fluorescence of the sample using excitation 530 nm, emission 590 nm. The concentration of dextran in samples was determined by the fluorescence of the sample using excitation 480 nm, emission 530 nm.

CACO 2 cells = assay: Digestion of peptide in apical chamber of Caco-2 cells (HPLC); assay type: in vitro ADME, human
Experimental: Digestion of peptide SEQ. ID. NO.:2 in apical chamber was determined using HPLC. The samples were diluted 100 times with the media, and 0.200 mL of each was injected on a column RP-HPLC column Vydac 218TP54, pre equilibrated 15 minutes with 5 acetonitroile/water (10 mM phosphoric acid) at flow rate 1 mL per minute. Sample was eluted with two component gradient 1% per minute of acetonitrole (10 mM phosphoric acid)/water (10 mM phosphoric acid) at flow rate 1 mL per minute. Fluorescent detection was used with excitation wavelength 555 nm and emission wavelength 580 nm. The peptide SEQ. ID. NO.: 2 was eluted as sharp peak at 22.3 min. The percentage of remaining peptide was calculated as: […]
where A—area under the peak at 22.3 min, SUM(Ai)—the sum of area of all peaks eluted between 13 and 26 minutes.

Caco-2 monolayers [2] = assay: Inhibition of phage transport across Caco-2 monolayers by SEQ. ID. NO.:1-Peroxidase conjugate; details: 50 μg/ml conjugate, 3 hours
Experimental: The cell monolayers on the insert filter apically and basolaterally were rinsed twice on each side with PBS and pre-incubated with pre-warmed D-MEM for 30 min. The medium in apical chamber was gently removed. […] The inserts were transferred to the new chamber. ^3H-Manitol was used as a probe to monitor Caco-2 monolayer leakiness. The medium containing isotope-labeled compound, a phage that expresses a peptide comprising an amino acid sequence of SEQ. […] NO.:4 (5×10^9 cfu/ml) or wild-type phage (Control phage 1.5×10^9 cfu/ml) in the presence and absence of 50 μg/ml of SEQ. […] NO.:1-Peroxidase conjugate was added to the apical side. After 3 hours incubation, the media from apical and basolateral sides of the chamber was collected and used to determine the phage and ^3H-manitol transport across Caco-2 monolayers. The relative transport of compounds in % through Caco-2 was calculated as:
where Cb is a concentration of compound in basolateral chamber, Ca is a concentration of compound in the apical chamber, Vb is a volume of media in basolateral chamber and Va is a volume of media in the apical chamber. The transport of phage that expresses a peptide comprising an amino acid sequence of SEQ. […] NO.:4, or peptide SEQ. […] NO.:1-Peroxidase conjugate was detected.

Caco-2 monolayers [3] = assay: Transport of peroxidase conjugate across Caco-2 monolayers; details: 25 µg/ml apical, peroxidase activity
Experimental: A two-chamber Caco-2 model was used to evaluate the transport of a conjugate comprising peroxidase and a peptide comprising an amino acid sequence of SEQ. ID. NO.:1 across the intestinal barrier (IB) in vitro. […] The medium containing isotope-labeled compound, the SEQ. ID. NO.:1-Peroxidase conjugate ([…]) or Control Peroxidase conjugate ([…]) was added to the apical side of cultured Caco-2 monolayers.

Substance	Transport [%] (Caco-2 monolayers [1]; 0.5 h)	Transport [%] (Caco-2 monolayers [1]; 1.0 h)	Transport [%] (Caco-2 monolayers [1]; 2.0 h)	Transport [%] (Caco-2 monolayers [1]; […])	Remaining peptide [%] (CACO 2 cells; 0.5 h incubation with CACO 2 cells)	Remaining peptide [%] (CACO 2 cells; 1 h incubation with CACO 2 cells)	Remaining peptide [%] (CACO 2 cells; 2 h incubation with CACO 2 cells)	inhibition of transport of SEQ. ID. NO.:4 phage across Caco-2 monolayers (Caco-2 monolayers [2])	Transport through Caco-2 monolayers, P, % (Caco-2 monolayers [3]; 2 hours) [%]	Transport through Caco-2 monolayers, P, % (Caco-2 monolayers [3]; 4 hours) [%]
dextran [reference compound]	0.05	0.16	0.63	0.38						
tamra-Ala-Ser-Ala-Arg-Val-Leu-Asp-Gly-Asp-Arg-Thr-Arg-Trp-Gly-NH2 ({TAMRA}-ASARVLDGDRTRWG-NH2) [SEQ. ID. NO.: 2]	0.22	0.16	1.23	0.71	86	84	63			
tamra-D-Ala-D-Ser-D-Ala-D-Arg-D-Val-D-Leu-D-Asp-D-Gly-D-Asp-D-Arg-D-Thr-D-Arg-D-Trp-D-Gly-NH2 ({TAMRA}-[dA][dS][dA][dR][dV][dL][dD]G[dD][dR][dT][dR][dW]G-NH2) [SEQ. ID. NO. 3]	0.06	0.43	1.03	0.30						
SEQ. ID. NO.:1-Peroxidase Conjugate (Ac-CRVLDGDRTRWG; also: peroxidase conjugate)								completely inhibited	0.35 ± 0.014	0.705 ± 0.09
